Test results taken from publication PMC11005391, “Tetramerization is essential for the enzymatic function of the Pseudomonas aeruginosa virulence factor UDP-glucose pyrophosphorylase” (mBio, 2024).

Tests used:
[1] = biological target: the molecule itself; test: cell-based or functional assay
[2] = biological target: Q9I291; test: SEC; Superdex 200 10/300 GL, 50 mM Tris-HCl pH 8.0, 300 mM NaCl, 10 mM MgCl2; oligomeric state calculated from elution volumes of proteins of known size; addition of UTP, Glc-1-P or UDP-Glc did not affect the oligomerization of the WT
[3] = biological target: the molecule itself; test: as above
[4] = biological target: the molecule itself; test: native gel or EMSA; blue native PAGE, uniform 12% polyacrylamide gel with 3.5% stacking gel, 13.5 ug of each protein loaded, Coomassie-stained bands

Row | Protein | In vitro activity (% of WT), EnzChek pyrophosphate assay, forward reaction [1] | N of the monomer peak (minor peak) [2] | stoichiometry N [3] | stoichiometry N [4] | N of a minor peak [3]
1 | PaUGP N32A (enzyme, UDP-glucose pyrophosphorylase of Pseudomonas aeruginosa (galU), residues 1-279, point mutant of Strep-PaUGP; Same construct as m1; source: E. coli BL21(DE3), purified (Strep-Tactin Sepharose); not shown: Strep-tagII, N-terminal, kept) MIKKCLFPAAGYGTRFLPATKAMPKEMLPVVAKPLIQYAVEEALEAGLSEIGIVTGRGKRSLEDHFDISYELEHQIRNTDKEKYLVGIRRLIDECTFAYTRQVEMKGLGHAILTGRPLIGDEPFAVVLADDLCLNLEGDSVLKQMVKLYNQFRCSIVAIQEVPPEETNKYGVIAGEMIRDDIFRVNTMVEKPKPEEAPSNLAIIGRYILTPDIFDLIEQTEPGKGGEIQITDALMKQAQDGCVLAYKFKGKRFDCGSAEGYIEATNFCYENLYKTGKAH | 56.2 % of WT | 1.1 | 4.4 | 4 | 
2 | PaUGP H74F (enzyme, UDP-glucose pyrophosphorylase of Pseudomonas aeruginosa (galU), residues 1-279, point mutant of Strep-PaUGP; Same construct as m1; source: E. coli BL21(DE3), purified (Strep-Tactin Sepharose); not shown: Strep-tagII, N-terminal, kept) MIKKCLFPAAGYGTRFLPATKAMPKEMLPVVNKPLIQYAVEEALEAGLSEIGIVTGRGKRSLEDHFDISYELEFQIRNTDKEKYLVGIRRLIDECTFAYTRQVEMKGLGHAILTGRPLIGDEPFAVVLADDLCLNLEGDSVLKQMVKLYNQFRCSIVAIQEVPPEETNKYGVIAGEMIRDDIFRVNTMVEKPKPEEAPSNLAIIGRYILTPDIFDLIEQTEPGKGGEIQITDALMKQAQDGCVLAYKFKGKRFDCGSAEGYIEATNFCYENLYKTGKAH |  | 1.1 | 3.5 | 4 | 
3 | PaUGP N266A (enzyme, UDP-glucose pyrophosphorylase of Pseudomonas aeruginosa (galU), residues 1-279, point mutant of Strep-PaUGP; Same construct as m1; source: E. coli BL21(DE3), purified (Strep-Tactin Sepharose); not shown: Strep-tagII, N-terminal, kept) MIKKCLFPAAGYGTRFLPATKAMPKEMLPVVNKPLIQYAVEEALEAGLSEIGIVTGRGKRSLEDHFDISYELEHQIRNTDKEKYLVGIRRLIDECTFAYTRQVEMKGLGHAILTGRPLIGDEPFAVVLADDLCLNLEGDSVLKQMVKLYNQFRCSIVAIQEVPPEETNKYGVIAGEMIRDDIFRVNTMVEKPKPEEAPSNLAIIGRYILTPDIFDLIEQTEPGKGGEIQITDALMKQAQDGCVLAYKFKGKRFDCGSAEGYIEATAFCYENLYKTGKAH | 64.9 % of WT | 1.2 | 4 |  | 
4 | PaUGP Y70A (enzyme, UDP-glucose pyrophosphorylase of Pseudomonas aeruginosa (galU), residues 1-279, point mutant of Strep-PaUGP; Same construct as m1; source: E. coli BL21(DE3), purified (Strep-Tactin Sepharose); not shown: Strep-tagII, N-terminal, kept) MIKKCLFPAAGYGTRFLPATKAMPKEMLPVVNKPLIQYAVEEALEAGLSEIGIVTGRGKRSLEDHFDISAELEHQIRNTDKEKYLVGIRRLIDECTFAYTRQVEMKGLGHAILTGRPLIGDEPFAVVLADDLCLNLEGDSVLKQMVKLYNQFRCSIVAIQEVPPEETNKYGVIAGEMIRDDIFRVNTMVEKPKPEEAPSNLAIIGRYILTPDIFDLIEQTEPGKGGEIQITDALMKQAQDGCVLAYKFKGKRFDCGSAEGYIEATNFCYENLYKTGKAH | 4.08 % of WT | 1.3 | 2.5 |  | 3.8
5 | PaUGP K59R (enzyme, UDP-glucose pyrophosphorylase of Pseudomonas aeruginosa (galU), residues 1-279, point mutant of Strep-PaUGP; Same construct as m1; source: E. coli BL21(DE3), purified (Strep-Tactin Sepharose); not shown: Strep-tagII, N-terminal, kept) MIKKCLFPAAGYGTRFLPATKAMPKEMLPVVNKPLIQYAVEEALEAGLSEIGIVTGRGRRSLEDHFDISYELEHQIRNTDKEKYLVGIRRLIDECTFAYTRQVEMKGLGHAILTGRPLIGDEPFAVVLADDLCLNLEGDSVLKQMVKLYNQFRCSIVAIQEVPPEETNKYGVIAGEMIRDDIFRVNTMVEKPKPEEAPSNLAIIGRYILTPDIFDLIEQTEPGKGGEIQITDALMKQAQDGCVLAYKFKGKRFDCGSAEGYIEATNFCYENLYKTGKAH | 1.66 % of WT |  | 4 |  | 
6 | PaUGP Q75E (enzyme, UDP-glucose pyrophosphorylase of Pseudomonas aeruginosa (galU), residues 1-279, point mutant of Strep-PaUGP; Same construct as m1; source: E. coli BL21(DE3), purified (Strep-Tactin Sepharose); not shown: Strep-tagII, N-terminal, kept) MIKKCLFPAAGYGTRFLPATKAMPKEMLPVVNKPLIQYAVEEALEAGLSEIGIVTGRGKRSLEDHFDISYELEHEIRNTDKEKYLVGIRRLIDECTFAYTRQVEMKGLGHAILTGRPLIGDEPFAVVLADDLCLNLEGDSVLKQMVKLYNQFRCSIVAIQEVPPEETNKYGVIAGEMIRDDIFRVNTMVEKPKPEEAPSNLAIIGRYILTPDIFDLIEQTEPGKGGEIQITDALMKQAQDGCVLAYKFKGKRFDCGSAEGYIEATNFCYENLYKTGKAH |  |  | 3.5 |  | 
7 | PaUGP K59A (enzyme, UDP-glucose pyrophosphorylase of Pseudomonas aeruginosa (galU), residues 1-279, point mutant of Strep-PaUGP; Same construct as m1; source: E. coli BL21(DE3), purified (Strep-Tactin Sepharose); not shown: Strep-tagII, N-terminal, kept) MIKKCLFPAAGYGTRFLPATKAMPKEMLPVVNKPLIQYAVEEALEAGLSEIGIVTGRGARSLEDHFDISYELEHQIRNTDKEKYLVGIRRLIDECTFAYTRQVEMKGLGHAILTGRPLIGDEPFAVVLADDLCLNLEGDSVLKQMVKLYNQFRCSIVAIQEVPPEETNKYGVIAGEMIRDDIFRVNTMVEKPKPEEAPSNLAIIGRYILTPDIFDLIEQTEPGKGGEIQITDALMKQAQDGCVLAYKFKGKRFDCGSAEGYIEATNFCYENLYKTGKAH | 2.31 % of WT |  | 3.6 | 4 | 
8 | PaUGP E63D (enzyme, UDP-glucose pyrophosphorylase of Pseudomonas aeruginosa (galU), residues 1-279, point mutant of Strep-PaUGP; Same construct as m1; source: E. coli BL21(DE3), purified (Strep-Tactin Sepharose); not shown: Strep-tagII, N-terminal, kept) MIKKCLFPAAGYGTRFLPATKAMPKEMLPVVNKPLIQYAVEEALEAGLSEIGIVTGRGKRSLDDHFDISYELEHQIRNTDKEKYLVGIRRLIDECTFAYTRQVEMKGLGHAILTGRPLIGDEPFAVVLADDLCLNLEGDSVLKQMVKLYNQFRCSIVAIQEVPPEETNKYGVIAGEMIRDDIFRVNTMVEKPKPEEAPSNLAIIGRYILTPDIFDLIEQTEPGKGGEIQITDALMKQAQDGCVLAYKFKGKRFDCGSAEGYIEATNFCYENLYKTGKAH | 5.68 % of WT | 1.3 | 3.9 | 4 | 
9 | PaUGP K21A + R101A double mutant (enzyme) MIKKCLFPAAGYGTRFLPATAAMPKEMLPVVNKPLIQYAVEEALEAGLSEIGIVTGRGKRSLEDHFDISYELEHQIRNTDKEKYLVGIRRLIDECTFAYTAQVEMKGLGHAILTGRPLIGDEPFAVVLADDLCLNLEGDSVLKQMVKLYNQFRCSIVAIQEVPPEETNKYGVIAGEMIRDDIFRVNTMVEKPKPEEAPSNLAIIGRYILTPDIFDLIEQTEPGKGGEIQITDALMKQAQDGCVLAYKFKGKRFDCGSAEGYIEATNFCYENLYKTGKAH | 0.32 % of WT |  |  |  | 
10 | PaUGP N32D (enzyme, UDP-glucose pyrophosphorylase of Pseudomonas aeruginosa (galU), residues 1-279, point mutant of Strep-PaUGP; Same construct as m1; source: E. coli BL21(DE3), purified (Strep-Tactin Sepharose); not shown: Strep-tagII, N-terminal, kept) MIKKCLFPAAGYGTRFLPATKAMPKEMLPVVDKPLIQYAVEEALEAGLSEIGIVTGRGKRSLEDHFDISYELEHQIRNTDKEKYLVGIRRLIDECTFAYTRQVEMKGLGHAILTGRPLIGDEPFAVVLADDLCLNLEGDSVLKQMVKLYNQFRCSIVAIQEVPPEETNKYGVIAGEMIRDDIFRVNTMVEKPKPEEAPSNLAIIGRYILTPDIFDLIEQTEPGKGGEIQITDALMKQAQDGCVLAYKFKGKRFDCGSAEGYIEATNFCYENLYKTGKAH | 110 % of WT | 1.4 | 4.7 |  | 
11 | PaUGP Q75A (enzyme, UDP-glucose pyrophosphorylase of Pseudomonas aeruginosa (galU), residues 1-279, point mutant of Strep-PaUGP; Same construct as m1; source: E. coli BL21(DE3), purified (Strep-Tactin Sepharose); not shown: Strep-tagII, N-terminal, kept) MIKKCLFPAAGYGTRFLPATKAMPKEMLPVVNKPLIQYAVEEALEAGLSEIGIVTGRGKRSLEDHFDISYELEHAIRNTDKEKYLVGIRRLIDECTFAYTRQVEMKGLGHAILTGRPLIGDEPFAVVLADDLCLNLEGDSVLKQMVKLYNQFRCSIVAIQEVPPEETNKYGVIAGEMIRDDIFRVNTMVEKPKPEEAPSNLAIIGRYILTPDIFDLIEQTEPGKGGEIQITDALMKQAQDGCVLAYKFKGKRFDCGSAEGYIEATNFCYENLYKTGKAH |  | 1.2 | 4.2 | 4 | 
12 | PaUGP D67A + R101A double mutant (enzyme, UDP-glucose pyrophosphorylase of Pseudomonas aeruginosa (galU), residues 1-279, double mutant of Strep-PaUGP; Same construct as m1; source: E. coli BL21(DE3), purified (Strep-Tactin Sepharose); not shown: Strep-tagII, N-terminal, kept) MIKKCLFPAAGYGTRFLPATKAMPKEMLPVVNKPLIQYAVEEALEAGLSEIGIVTGRGKRSLEDHFAISYELEHQIRNTDKEKYLVGIRRLIDECTFAYTAQVEMKGLGHAILTGRPLIGDEPFAVVLADDLCLNLEGDSVLKQMVKLYNQFRCSIVAIQEVPPEETNKYGVIAGEMIRDDIFRVNTMVEKPKPEEAPSNLAIIGRYILTPDIFDLIEQTEPGKGGEIQITDALMKQAQDGCVLAYKFKGKRFDCGSAEGYIEATNFCYENLYKTGKAH | 1.57 % of WT |  | 2 |  | 
13 | PaUGP E63A (enzyme, UDP-glucose pyrophosphorylase of Pseudomonas aeruginosa (galU), residues 1-279, point mutant of Strep-PaUGP; Same construct as m1; source: E. coli BL21(DE3), purified (Strep-Tactin Sepharose); not shown: Strep-tagII, N-terminal, kept) MIKKCLFPAAGYGTRFLPATKAMPKEMLPVVNKPLIQYAVEEALEAGLSEIGIVTGRGKRSLADHFDISYELEHQIRNTDKEKYLVGIRRLIDECTFAYTRQVEMKGLGHAILTGRPLIGDEPFAVVLADDLCLNLEGDSVLKQMVKLYNQFRCSIVAIQEVPPEETNKYGVIAGEMIRDDIFRVNTMVEKPKPEEAPSNLAIIGRYILTPDIFDLIEQTEPGKGGEIQITDALMKQAQDGCVLAYKFKGKRFDCGSAEGYIEATNFCYENLYKTGKAH | 7.6 % of WT |  | 3.6 |  | 
14 | PaUGP D67A (enzyme, UDP-glucose pyrophosphorylase of Pseudomonas aeruginosa (galU), residues 1-279, point mutant of Strep-PaUGP; Same construct as m1; source: E. coli BL21(DE3), purified (Strep-Tactin Sepharose); not shown: Strep-tagII, N-terminal, kept) MIKKCLFPAAGYGTRFLPATKAMPKEMLPVVNKPLIQYAVEEALEAGLSEIGIVTGRGKRSLEDHFAISYELEHQIRNTDKEKYLVGIRRLIDECTFAYTRQVEMKGLGHAILTGRPLIGDEPFAVVLADDLCLNLEGDSVLKQMVKLYNQFRCSIVAIQEVPPEETNKYGVIAGEMIRDDIFRVNTMVEKPKPEEAPSNLAIIGRYILTPDIFDLIEQTEPGKGGEIQITDALMKQAQDGCVLAYKFKGKRFDCGSAEGYIEATNFCYENLYKTGKAH | 3.31 % of WT |  | 2.3 |  | 5.5
15 | PaUGP D67N (enzyme, UDP-glucose pyrophosphorylase of Pseudomonas aeruginosa (galU), residues 1-279, point mutant of Strep-PaUGP; Same construct as m1; source: E. coli BL21(DE3), purified (Strep-Tactin Sepharose); not shown: Strep-tagII, N-terminal, kept) MIKKCLFPAAGYGTRFLPATKAMPKEMLPVVNKPLIQYAVEEALEAGLSEIGIVTGRGKRSLEDHFNISYELEHQIRNTDKEKYLVGIRRLIDECTFAYTRQVEMKGLGHAILTGRPLIGDEPFAVVLADDLCLNLEGDSVLKQMVKLYNQFRCSIVAIQEVPPEETNKYGVIAGEMIRDDIFRVNTMVEKPKPEEAPSNLAIIGRYILTPDIFDLIEQTEPGKGGEIQITDALMKQAQDGCVLAYKFKGKRFDCGSAEGYIEATNFCYENLYKTGKAH | 2.54 % of WT |  | 2.1 |  | 3.8
